Measured values: patent US20210156867A1

Target: mouse recombinant His-calmodulin, calcium-bound (mouse), P0DP26

INLKALAALAKKIL (modifications not checked) [Mastoparan, P01514 1-14] gave a Kd of 1.2 nM.
